Measurements from article PMC3532599, “Structural and Functional Integration of the PLCγ Interaction Domains Critical for Regulatory Mechanisms and Signaling Deregulation” (Structure(London, England:1993), 2012).
Numbering of substitutions follows the chain as printed. In names and notes the source's numbering stands.

T1: PLCγ1 tandem nSH2-cSH2 domains, wild type (human, UniProt P19174 545-790)
T1 construct: PLCγ1 (phospholipase C gamma 1), tandem nSH2 and cSH2 domains with part of the cSH2-SH3 linker; residue numbering is for human PLCγ1; also called nSH2-cSH2^wt; nSH2cSH2^WT
T1 sequence: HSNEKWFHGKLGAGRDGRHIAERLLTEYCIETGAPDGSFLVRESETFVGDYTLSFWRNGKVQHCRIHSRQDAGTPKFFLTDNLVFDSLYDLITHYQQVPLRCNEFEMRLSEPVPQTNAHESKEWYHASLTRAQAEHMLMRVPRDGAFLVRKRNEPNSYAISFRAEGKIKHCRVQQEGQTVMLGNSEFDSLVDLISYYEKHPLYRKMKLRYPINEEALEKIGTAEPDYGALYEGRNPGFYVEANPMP

T2: PLCγ1 nSH2-cSH2 Y771F,Y775F (545–790) phosphorylated on Y783 (human, UniProt P19174 545-790, Y771F | Y775F, phosphotyrosine at 783)
T2 construct: PLCγ1, tandem nSH2-cSH2 with the cSH2-SH3 linker, residues 545-790; residue numbering is for human PLCγ1; also called nSH2-cSH2^Y771F,Y775F,pY783; nSH2cSH2^pY783
T2 sequence (looked up): T1 sequence with Y227F, Y231F

T3: PLCγ1 cSH2 domain, wild type (human)
T3 sequence (P19174 whole entry, looked up): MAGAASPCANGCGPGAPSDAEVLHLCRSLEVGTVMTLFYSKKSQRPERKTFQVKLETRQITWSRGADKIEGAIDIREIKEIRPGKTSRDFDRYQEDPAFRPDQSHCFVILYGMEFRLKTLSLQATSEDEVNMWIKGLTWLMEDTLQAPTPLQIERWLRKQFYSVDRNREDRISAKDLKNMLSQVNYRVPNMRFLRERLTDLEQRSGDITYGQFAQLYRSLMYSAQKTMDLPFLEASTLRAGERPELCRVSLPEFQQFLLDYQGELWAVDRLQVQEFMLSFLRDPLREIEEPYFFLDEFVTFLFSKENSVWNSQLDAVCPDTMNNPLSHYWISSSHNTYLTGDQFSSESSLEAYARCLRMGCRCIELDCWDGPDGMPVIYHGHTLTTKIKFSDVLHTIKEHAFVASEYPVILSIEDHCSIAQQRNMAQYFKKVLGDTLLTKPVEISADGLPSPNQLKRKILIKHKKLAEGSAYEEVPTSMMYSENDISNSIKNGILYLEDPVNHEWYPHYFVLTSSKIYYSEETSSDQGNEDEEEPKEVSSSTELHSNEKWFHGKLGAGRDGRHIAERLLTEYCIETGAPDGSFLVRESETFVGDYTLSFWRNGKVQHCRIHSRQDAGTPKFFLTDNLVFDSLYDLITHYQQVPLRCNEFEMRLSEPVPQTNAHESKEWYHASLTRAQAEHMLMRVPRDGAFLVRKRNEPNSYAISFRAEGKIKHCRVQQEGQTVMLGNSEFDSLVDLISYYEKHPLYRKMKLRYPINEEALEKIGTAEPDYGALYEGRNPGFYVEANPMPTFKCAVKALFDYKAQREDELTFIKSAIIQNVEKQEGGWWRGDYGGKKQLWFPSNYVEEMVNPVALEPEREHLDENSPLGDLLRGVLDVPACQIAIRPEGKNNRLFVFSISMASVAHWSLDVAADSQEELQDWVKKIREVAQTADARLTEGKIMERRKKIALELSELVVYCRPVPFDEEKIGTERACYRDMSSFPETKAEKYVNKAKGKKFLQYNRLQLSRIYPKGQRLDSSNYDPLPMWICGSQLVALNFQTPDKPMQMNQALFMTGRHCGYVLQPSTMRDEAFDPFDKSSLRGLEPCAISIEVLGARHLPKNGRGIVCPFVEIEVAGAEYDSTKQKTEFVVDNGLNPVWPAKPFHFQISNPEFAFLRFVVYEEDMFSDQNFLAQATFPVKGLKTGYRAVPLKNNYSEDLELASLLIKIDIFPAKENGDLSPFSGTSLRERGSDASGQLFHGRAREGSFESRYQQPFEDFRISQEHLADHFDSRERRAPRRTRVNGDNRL

B1: FGFR1-1p kinase domain (pY766) (domain or fragment, UniProt P11362 458-774, looked up)
chain: AGVSEYELPEDPRWELPRDRLVLGKPLGEGCFGQVVLAEAIGLDKDKPNRVTKVAVKMLKSDATEKDLSDLISEMEMMKMIGKHKNIINLLGACTQDGPLYVIVEYASKGNLREYLQARRPPGLEYCYNPSHNPEEQLSSKDLVSCAYQVARGMEYLASKKCIHRDLAARNVLVTEDNVMKIADFGLARDIHHIDYYKKTTNGRLPVKWMAPEALFDRIYTHQSDVWSFGVLLWEIFTLGGSPYPGVPVEELFKLLKEGHRMDKPSNCTNELYMMMRDCWHAVPSQRPTFKQLVEDLDRIVALTSNQEYLDLSMPLD
modifications: phosphotyrosine at 766
notes: fibroblast growth factor receptor 1 (FGFR1), kinase domain with the C-terminal tail holding pY766; see the Supplemental Experimental Procedures
B2: PLCγ1 PLC-core (residues 13−1215, Δ488–933, H335A) (domain or fragment)
chain: GPGAPSDAEVLHLCRSLEVGTVMTLFYSKKSQRPERKTFQVKLETRQITWSRGADKIEGAIDIREIKEIRPGKTSRDFDRYQEDPAFRPDQSHCFVILYGMEFRLKTLSLQATSEDEVNMWIKGLTWLMEDTLQAPTPLQIERWLRKQFYSVDRNREDRISAKDLKNMLSQVNYRVPNMRFLRERLTDLEQRSGDITYGQFAQLYRSLMYSAQKTMDLPFLEASTLRAGERPELCRVSLPEFQQFLLDYQGELWAVDRLQVQEFMLSFLRDPLREIEEPYFFLDEFVTFLFSKENSVWNSQLDAVCPDTMNNPLSHYWISSSANTYLTGDQFSSESSLEAYARCLRMGCRCIELDCWDGPDGMPVIYHGHTLTTKIKFSDVLHTIKEHAFVASEYPVILSIEDHCSIAQQRNMAQYFKKVLGDTLLTKPVEISADGLPSPNQLKRKILIKHKKLAEGSAYEEVPTSMMYSENDISDARLTEGKIMERRKKIALELSELVVYCRPVPFDEEKIGTERACYRDMSSFPETKAEKYVNKAKGKKFLQYNRLQLSRIYPKGQRLDSSNYDPLPMWICGSQLVALNFQTPDKPMQMNQALFMTGRHCGYVLQPSTMRDEAFDPFDKSSLRGLEPCAISIEVLGARHLPKNGRGIVCPFVEIEVAGAEYDSTKQKTEFVVDNGLNPVWPAKPFHFQISNPEFAFLRFVVYEEDMFSDQNFLAQATFPVKGLKTGYRAVPLKNNYSEDLELASLLIKIDIFPAK

Tests used:
[1] = molecular target: PLCγ1 PLC-core (residues 13−1215, Δ488–933, H335A) (human) (UniProt P19174); assay: ITC; cSH2 domain in the syringe, PLC-core in the cell
FGFR1 kinase domain = FGFR1 kinase domain (UniProt P11362); assay: ITC, two-site fit; details: reference: nonphosphorylated wild-type nSH2-cSH2; sites Y783
[2] = molecular target: PLCγ1 specific array of domains (γSA), wild type (human); assay: ITC; FGFR1-1p in the syringe, PLCγ1 construct in the cell; corrected for heat of dilution; fit to a two-site model (nSH2-cSH2 constructs) or a one-site model (γSA)
[3] = molecular target: T1, PLCγ1 tandem nSH2-cSH2 domains, wild …; assay: as above; details: both partners purified
[4] = molecular target: T2, PLCγ1 nSH2-cSH2 Y771F,Y775F (545–790) …; assay: as above; details: both partners purified
[5] = molecular target: T3, PLCγ1 cSH2 domain, wild type (human); assay: NMR titration; 15N-labelled spPH, nSH2 or cSH2 domain observed by 1H-15N HSQC, unlabelled PLC-core (H335A) added up to 1:1; 25°C; for cSH2 then the phosphopeptide NPGFpYVEANPMP to 1:1:1

Kd [1] | dH [1] | stoichiometry N [1] | further results | Molecule
23.9 µM | 587 cal/mol | 1.14 |  | PLCγ1 cSH2 domain, wild type (domain or fragment)
49.5 µM | -1430 cal/mol | 1.17 |  | PLCγ1 cSH2 domain N728D (domain or fragment)
 |  |  | KD (FGFR1 kinase domain): weaker; reference 0.005 ± 0.001 | PLCγ1 nSH2-cSH2 tandem, 545-790 (from UniProt P19174) nSH2-cSH2 Y771F,Y775F phosphorylated at Y783
61.3 µM | -1450 cal/mol | 1 |  | PLCγ1 cSH2 domain S729Y (domain or fragment)
 |  |  | Kd [2]: 185 nM; dH [2]: -7090 cal/mol; stoichiometry N [2]: 1.03; dH, first binding event [3]: -6500 ± 183 cal/mol; dH, second binding event [3]: 7120 ± 230 cal/mol; dH, first binding event [4]: -8307 ± 25 cal/mol; dH, second binding event [4]: 37700 ± 5130 cal/mol | B1
 |  |  | Kd [5]: 25 µM | B2
